Data published in paper PMC5677370, “Structure-based nuclear import mechanism of histones H3 and H4 mediated by Kap123” (eLife, 2017).

Columns and labels:
MBP-tagged Kap123 = assay: amylose affinity pull-down competition assay; conditions: pre-assembled MBP-Kap123 and H3 1-59-Sumo, value at 0X set to 1.0, read off a plot
[1] = biological target: full-length Kluyveromyces lactis (Kl) Kap123, wild type (Kluyveromyces lactis); assay: SPR; wild-type Kl Kap123 immobilised on a CM5 chip (10 mM acetate pH 4.0); wild-type or mutant H3 or H4 peptides injected at 30 μl/min in binding buffer (10 mM HEPES, 150 mM NaCl); 7°C

MBP-tagged Kap123, sequence (chain, as listed by the source): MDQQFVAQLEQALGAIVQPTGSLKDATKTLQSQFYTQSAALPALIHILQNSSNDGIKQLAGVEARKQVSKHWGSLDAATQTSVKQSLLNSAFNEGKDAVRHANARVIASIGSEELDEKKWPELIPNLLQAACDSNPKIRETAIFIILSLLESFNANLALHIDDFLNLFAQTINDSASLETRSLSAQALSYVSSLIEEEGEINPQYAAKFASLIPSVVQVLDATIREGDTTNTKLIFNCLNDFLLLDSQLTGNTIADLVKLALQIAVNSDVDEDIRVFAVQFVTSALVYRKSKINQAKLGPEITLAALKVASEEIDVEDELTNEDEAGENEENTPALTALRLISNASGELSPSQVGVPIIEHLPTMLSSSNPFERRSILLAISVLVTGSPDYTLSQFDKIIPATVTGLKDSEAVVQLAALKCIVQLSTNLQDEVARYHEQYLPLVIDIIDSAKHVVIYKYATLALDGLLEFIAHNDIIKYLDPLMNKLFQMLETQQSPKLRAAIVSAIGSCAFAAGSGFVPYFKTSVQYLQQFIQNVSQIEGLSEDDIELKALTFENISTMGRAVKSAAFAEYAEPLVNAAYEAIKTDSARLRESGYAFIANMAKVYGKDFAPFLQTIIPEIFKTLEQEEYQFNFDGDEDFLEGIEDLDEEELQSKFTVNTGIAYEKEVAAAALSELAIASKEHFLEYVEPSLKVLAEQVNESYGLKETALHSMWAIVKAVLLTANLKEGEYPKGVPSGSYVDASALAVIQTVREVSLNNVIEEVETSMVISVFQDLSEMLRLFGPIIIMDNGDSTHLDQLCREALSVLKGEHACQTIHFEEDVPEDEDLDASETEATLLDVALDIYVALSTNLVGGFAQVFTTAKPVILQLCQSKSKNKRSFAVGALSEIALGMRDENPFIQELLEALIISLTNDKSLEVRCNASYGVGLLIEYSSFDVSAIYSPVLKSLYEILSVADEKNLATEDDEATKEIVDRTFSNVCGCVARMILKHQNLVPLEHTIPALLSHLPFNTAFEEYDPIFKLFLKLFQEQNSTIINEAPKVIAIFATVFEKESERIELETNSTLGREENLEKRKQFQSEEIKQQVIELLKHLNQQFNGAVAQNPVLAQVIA

Row | Substance | other: relative intensity of H3 1-59-Sumo remaining bound to Kap123 after competition (MBP-tagged Kap123; competitor at 1X, parent: est. 0.88) | other: relative intensity of H3 1-59-Sumo remaining bound to Kap123 after competition (MBP-tagged Kap123; competitor at 2X, parent: est. 0.67) | other: relative intensity of H3 1-59-Sumo remaining bound to Kap123 after competition (MBP-tagged Kap123; competitor at 5X, parent: est. 0.32) | other: relative intensity of H3 1-59-Sumo remaining bound to Kap123 after competition (MBP-tagged Kap123; competitor at 10X, parent: est. 0.13) | fold affinity relative to H4-NLS [1] [fold]
1 | C-terminal Sumo-tagged histone H4_(1–48), P02309 K5Q; K8Q; K12Q | 0.99 | 0.99 | 0.94 | 0.96 | 
2 | wild-type H3_(1–35)-NLS peptide (injected as analyte) (from UniProt P61830 2-36) |  |  |  |  | 5
